The record followed here is publication PMC5241119, “Structural snapshots of Xer recombination reveal activation by synaptic complex remodeling and DNA bending”.

For data set [1], the target named is Helicobacter pylori XerH recombinase, full-length wild type (Helicobacter pylori) (UniProt O25386). In words: crystal structure; full-length wild-type XerH co-crystallised with a 30 bp difH DNA duplex (pre-cleavage synaptic complex: four XerH, two difH); protein:DNA 1.2:1; well 0.2 M NaCl, 20-25% PEG 3350; 6°C.
The target is the same in data set [2]. In words: crystal structure; XerH co-crystallised with nicked palindromic 'suicide' difHLP DNA (post-cleavage synaptic complex; two XerH and one DNA in the asymmetric unit, tetramer by crystallographic two-fold); well 0.1 M HEPES pH 7-8, 0.2 M MgCl2, 25-35% PEG 400; 6°C.
The target of data set [3] is T1, XerH (Helicobacter pylori strain 26995 (as …, UniProt O25386 1-362)).
T1 sequence: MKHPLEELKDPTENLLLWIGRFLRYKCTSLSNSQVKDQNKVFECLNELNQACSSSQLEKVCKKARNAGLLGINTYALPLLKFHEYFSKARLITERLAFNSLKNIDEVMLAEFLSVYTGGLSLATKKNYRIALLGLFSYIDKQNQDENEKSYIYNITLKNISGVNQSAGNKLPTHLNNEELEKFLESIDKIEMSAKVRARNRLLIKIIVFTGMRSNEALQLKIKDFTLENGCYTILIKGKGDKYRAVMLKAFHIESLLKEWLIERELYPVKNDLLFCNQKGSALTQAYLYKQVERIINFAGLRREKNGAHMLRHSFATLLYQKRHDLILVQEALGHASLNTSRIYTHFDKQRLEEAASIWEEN
In words: EMSA; 10 mM Mg2+; all complex species summed; EMSA: 25 mM HEPES pH 7.5, 100 mM NaCl, 10 mM MgCl2, 5% glycerol, 1 mM DTT, 1 mM EDTA, 1 h at 30 C, 20 nM DNA, 0-360 nM XerH; SEC complexes prepared as for crystallization (dialysed to 25 mM Na acetate pH 5.5, 200 mM NaCl, 5% glycerol, 1 mM DTT). The note with it: protein: recombinant; tags: His6-SUMO N-terminal, removed with SenP2; label: 5'-32P; blunt.

The target in data set [4] is T1, XerH. As to the kind of experiment: analytical SEC; EMSA: 25 mM HEPES pH 7.5, 100 mM NaCl, 10 mM MgCl2, 5% glycerol, 1 mM DTT, 1 mM EDTA, 1 h at 30 C, 20 nM DNA, 0-360 nM XerH; SEC complexes prepared as for crystallization (dialysed to 25 mM Na acetate pH 5.5, 200 mM NaCl, 5% glycerol, 1 mM DTT). Particulars: protein: recombinant, tags: His6-SUMO N-terminal, removed with SenP2, blunt. On the technique in general: A gel shift assay detects complexes by their altered migration in electrophoresis.

Data set [5] concerns the target XerH K290S (Helicobacter pylori strain 26995 (as …, UniProt O25386 1-362, K290S)). In words: EMSA; K290S does not affect difH binding; EMSA: 25 mM HEPES pH 7.5, 100 mM NaCl, 10 mM MgCl2, 5% glycerol, 1 mM DTT, 1 mM EDTA, 1 h at 30 C, 20 nM DNA, 0-360 nM XerH; SEC complexes prepared as for crystallization (dialysed to 25 mM Na acetate pH 5.5, 200 mM NaCl, 5% glycerol, 1 mM DTT). Particulars: protein: recombinant; tags: His6-SUMO N-terminal, removed with SenP2; label: 5'-32P; blunt.

For data set [6], the target named is T1, XerH. As to the kind of experiment: X-ray crystallography; 2.1 A; pre-cleavage, pH 5.5, no metal; EMSA: 25 mM HEPES pH 7.5, 100 mM NaCl, 10 mM MgCl2, 5% glycerol, 1 mM DTT, 1 mM EDTA, 1 h at 30 C, 20 nM DNA, 0-360 nM XerH; SEC complexes prepared as for crystallization (dialysed to 25 mM Na acetate pH 5.5, 200 mM NaCl, 5% glycerol, 1 mM DTT). Particulars: protein: recombinant; tags: His6-SUMO N-terminal, removed with SenP2; blunt ends, terminal G:A mismatch at strand 1 position 1 as printed; two duplexes per complex.

Data set [7] has as its target T1, XerH. In words: analytical SEC; no shift in retention; EMSA: 25 mM HEPES pH 7.5, 100 mM NaCl, 10 mM MgCl2, 5% glycerol, 1 mM DTT, 1 mM EDTA, 1 h at 30 C, 20 nM DNA, 0-360 nM XerH; SEC complexes prepared as for crystallization (dialysed to 25 mM Na acetate pH 5.5, 200 mM NaCl, 5% glycerol, 1 mM DTT). The note with it: protein: recombinant; tags: His6-SUMO N-terminal, removed with SenP2; blunt, self-complementary, 2 copies of one strand.

The stoichiometry N is the number of molecules, sites or subunits per partner or assembly. For the molecule “Helicobacter pylori XerH recombinase, full-length wild type (from UniProt O25386 1-362) (enzyme)”, the stoichiometry N in data set [1] and in data set [2] was 4 each time.

B1: difHR 50 bp (right arm, left arm replaced by random) (dsDNA)
DNA 1: CATATTTTTCCTTTTAAATTCACTGCACTTTTCAAACTTTTAAATCAAAC
DNA 2: GTTTGATTTAAAAGTTTGAAAAGTGCAGTGAATTTAAAAGGAAAAATATG
Broadly, the Kd is the free concentration of one partner at which half of the binding sites on the other are occupied at equilibrium, for simple one-to-one binding. As to B1, the Kd in data set [3] stood at 230 nM.

B2: difHLP (left-arm palindrome, 30 bp) (dsDNA)
DNA 1: TAGTTATGAAAACTGCAGTTTTCATAACTA
DNA 2: TAGTTATGAAAACTGCAGTTTTCATAACTA
In the case of B2, the binding result in data set [4] (self-complementary, 2 copies of one strand) is on record as “binds”.

B3: difHL 50 bp (left arm, right arm replaced by random) (dsDNA)
DNA 1: TAAATTCATTTAGTTATGAAAACTGCACTTAAATCAAACCATTTAAATAA
DNA 2: TTATTTAAATGGTTTGATTTAAGTGCAGTTTTCATAACTAAATGAATTTA
For B3, the dissociation constant (Kd) in data set [3] was found to be 180 nM.

B4: difH 50 bp (dsDNA)
DNA 1: TAAATTCATTTAGTTATGAAAACTGCACTTTTCAAACTTTTAAATCAAAC
DNA 2: GTTTGATTTAAAAGTTTGAAAAGTGCAGTTTTCATAACTAAATGAATTTA
For the molecule B4, the binding result in data set [5] was “binds”. In data set [3], the dissociation constant Kd is 150 nM.

B5: difH 30 bp (SEC) (dsDNA)
DNA 1: TAGTTATGAAAACTGCACTTTTCAAACTTT
DNA 2: AAAGTTTGAAAAGTGCAGTTTTCATAACTA
On to B5, for which the binding result in data set [4] is recorded as “binds”.

B6: difH 30 bp (pre-cleavage crystal) (dsDNA)
DNA 1: GAGTTATGAAAACTGCACTTTTCAAACTTT
DNA 2: AAAGTTTGAAAAGTGCAGTTTTCATAACTA
Regarding B6, the binding result in data set [6] is listed as “binds”.

B7: difHRP (right-arm palindrome, 30 bp) (dsDNA)
DNA 1: AAAGTTTGAAAAGTGCACTTTTCAAACTTT
DNA 2: AAAGTTTGAAAAGTGCACTTTTCAAACTTT
On to B7, for which the binding result in data set [7] is on record as “no binding”.
